Data taken from article PMC3045617.

Key:
Experiment in all cases: EMSA
[1] = target: T1, GlrR-His10 (E. coli) (Escherichia coli) (UniProt P0AFU4)
T1 sequence: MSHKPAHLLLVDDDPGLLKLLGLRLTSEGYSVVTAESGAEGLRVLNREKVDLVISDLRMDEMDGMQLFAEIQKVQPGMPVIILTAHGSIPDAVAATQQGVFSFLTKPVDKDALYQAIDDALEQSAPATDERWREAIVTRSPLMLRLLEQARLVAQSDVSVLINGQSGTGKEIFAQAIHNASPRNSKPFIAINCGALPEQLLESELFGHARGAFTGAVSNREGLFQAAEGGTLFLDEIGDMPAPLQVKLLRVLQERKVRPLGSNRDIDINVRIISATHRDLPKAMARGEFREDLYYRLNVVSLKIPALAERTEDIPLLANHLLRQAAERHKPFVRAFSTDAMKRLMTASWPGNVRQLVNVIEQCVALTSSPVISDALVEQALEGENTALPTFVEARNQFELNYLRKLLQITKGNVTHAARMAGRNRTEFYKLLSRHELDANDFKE

[2] = tested on: GlrR-His10 (E. coli) (Escherichia coli)
[3] = tested on: GlrR-His10 (Y. pseudotuberculosis) (Yersinia pseudotuberculosis), ORF:f09f451a
[4] = target: IHF (UniProt P0A6X7+P0A6Y1)
[5] = tested on: GlrR-His10 (Y. pseudotuberculosis) (Yersinia pseudotuberculosis)

Sequence of UniProt P0A6X7 (P0A6X7 2-99, chain 1 of 2): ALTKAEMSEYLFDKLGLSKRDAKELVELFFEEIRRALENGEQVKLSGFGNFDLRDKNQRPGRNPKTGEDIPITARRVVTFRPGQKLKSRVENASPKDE
Sequence of UniProt P0A6X7 (P0A6Y1 whole entry, chain 2 of 2): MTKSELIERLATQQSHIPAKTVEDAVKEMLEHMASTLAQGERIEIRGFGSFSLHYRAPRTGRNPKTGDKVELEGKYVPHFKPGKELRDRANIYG

Substance | Kd [1] [nM] | Kd [2] [nM] | further results
ATTAATGCAGCTGGCACGACAGGTTTCCCGACTGGAAAGCGGGCAGTGAGCGCAACGCAATTAATGTGAGTTAGCTCACTCATTAGGCACCCCAGGCTTTACACTTTATGCTTCCGGCTCGTATGTTGTGTGGAATTGTGAGCGGATAACAATTTCACACAGGAAACAGCTATGACCATGATTACGGATTCACTGGCCGT (double strand) [lacZ promoter 200 bp control] | – | – | binding [1]: no binding
CGTCTCTAGACATAAGAAGGTGAATGAGCCACTGGTTACCATTATGCAGTAATTGTGCCAACATTCAAAAGAATTTGTTAACATAATGATAGATATGAAAAATATCGTTATTCATGCTAAAAATGGCTCTGTCTGTTTTTTGCCCTTTCTGTCGCCAATCAGCAACACCTGCAACACCTAAAAATAAAACAATTTAAAATCAAATAGTTAAATGTCTCTTTTTGGCGACAACCTATCCCCCACTCATGTCGGGATTTCCCGACACTTTAATCTTGGTCGACGCGTGC (double strand) [S. typhimurium glmY promoter (-242 to +22)] | 230 | – | –
E. coli glmY promoter (-238 to +22) | – | 360 | –
GCACGCGTCGACGTGTTGCCATTATGATTTGTTGGCGATATCCCAGGCTTCATTTGTCGCTATTCGGTGACGAGTAATCTATTGATTTATAATCACTTTGTAAAAAGCATCCTGTTCTGTCTCCACCGGGCGACACGCTAAAACCTCGCCAGCGGCGGGGGGATGACAATCGCGTGAATTCTCTACGTTTTTTTAATGCCTGCGCCTGTTTTTTAGCGGTGCAAAGATGGCACGTTATGTGCAATAATGTACGGGTAGATGCTCATTCCATCTCTTATCTAGAGACG (double strand) [S. typhimurium glmZ promoter (-242 to +22)] | 370 | – | –
GCTCTAGAATAAGTCGGTGAATGAGCCACTGGTTACTATTATGCAGTAACTGTGCCAATAAAGAAAATAGTTTGGTAACGTACTGATTATACGTTGCTTTGAGGGGTTTATGTCTCCTCCGCTGTTTGAATGTAAATCAGCCACTGTGTCGCTAAAAAGAGACAACTTAAGATAAACTTATTAGATAATATTAAAATCAATGAGTTAAGTGTCGCCAGAAAGCGACACGGCAAACCACCCATTGTCGTGATTTACAGACACAAAAAAGGTCGACGCGTGC (double strand) [E. coli glmY promoter (-238 to +22)] | 360 | – | binding [3]: binds; binding [1]: binds; binding [4]: binds
S. typhimurium glmY promoter (-242 to +22) | – | 230 | –
S. typhimurium glmZ promoter (-242 to +22) | – | 370 | –
Y. pseudotuberculosis glmY promoter (-257 to +22) | – | 290 | –
Y. pseudotuberculosis glmZ promoter (-303 to +22) | – | 370 | binding signal (fold higher protein than E. coli GlrR) [5]: 4
